Biological target: the molecule itself
Assay: AUC + other: dynamic light scattering

B1: SARS-CoV ORF-9b protein (natural protein)
chain: MDPNQTNVVPPALHLVDPQIQLTITRMEDAMGQGQNSADPKVYPIILRLGSQLSLSMARRNLDSLEARAFQSTPIVVQMTKLATTEELPDEFVVVTAK
- stoichiometry N: 2
